Experimental findings from patent publication CN118459575A (CHENZHOU NO 1 PEOPLES HOSPITAL, dated 2024) are described below.

Assay [1] deals with SARS-CoV-2 Gamma突变株 S蛋白 (假病毒) (SARS-CoV-2 Gamma). As to the kind of experiment: cell-based or functional assay.
For assay [2], the target named is SARS-CoV-2 Delta突变株 S蛋白 (假病毒) (SARS-CoV-2 Delta). As to the kind of experiment: cell-based or functional assay.
Assay [3] deals with T1, SARS-CoV-2 S2蛋白 (Sino Biological, 货号 40590-V08B) (SARS-CoV-2, UniProt P0DTC2 686-1213).
T1 construct: domain: S2
As to the kind of experiment: ELISA, S2 coated at 2 μg/mL, antibody at 1 μg/mL.

The target in assay [4] is T2, SARS-CoV-2-Hu-1 S蛋白 (Sino Biological, 货号 40589-V08B1) (SARS-CoV-2, UniProt P0DTC2 14-1213).
T2 construct: extracellular domain
As to the kind of experiment: ELISA screen, S protein coated at 2 μg/mL, antibody at 1 μg/mL. (ELISA stands for enzyme-linked immunosorbent assay.)

Assay [5] has as its target T3, SARS-CoV-2 S1蛋白 (Sino Biological, 货号 40591-V08H) (SARS-CoV-2, UniProt P0DTC2 16-685).
T3 construct: domain: S1
In words: ELISA, S1 coated at 2 μg/mL, antibody at 1 μg/mL.

For assay [6], the target named is SARS-CoV S1蛋白 (Sino Biological, 货号 40150-V08B1) (SARS-CoV, UniProt P59594 14-667). As to the kind of experiment: ELISA, S1 coated at 2 μg/mL, antibody titrated.

B1: 广谱抗sarbecovirus和/或新冠突变株的抗体 SCM12-61 (antibody, V domains shown)
VH: QVQLVESGGGVVQPGRSLRLSCATSGFTFRSSAMHWVRQAPGKGLEWVAVIWFDGIKKYYTDSVKGRFTISRDNSKNTLYLQMNSLGAEDTAVYYCARDRAREFYPGPHCGDECYSSDAFDVWGQGTTVIVSS
VL: DIQMTQSPSSLSASVGDRVTITCRASQDINTYLNWYQQKSGRAPKFLIYAASSLQSGIPSRFSGSGSGTDFTLTIDSLQPEDFATYYCQQSHSIPYTFGQGTKLEIKR
Turning to B1, the “假病毒中和 IC50” value in assay [1] worked out at 0.00813 µg/mL; in assay [2] it was 0.0248 µg/mL. Besides, the binding result in assay [3] was “no binding (tested: 1μg/mL)”; in assay [4], “binds”; in assay [5], “binds”; in assay [6] it was “binds”.
